In patent US20190345234A1 (CENTRE HOSPITALIER UNIVERSITAIRE VAUDOIS, published 2019):

Molecular target: Fc-gamma receptor I (CD64) (UniProt P12314 16-374)
Experiment: cell-based or functional assay

Sequence of Fc-gamma receptor I (CD64) (P12314 16-374 limits assumed, form in doubt): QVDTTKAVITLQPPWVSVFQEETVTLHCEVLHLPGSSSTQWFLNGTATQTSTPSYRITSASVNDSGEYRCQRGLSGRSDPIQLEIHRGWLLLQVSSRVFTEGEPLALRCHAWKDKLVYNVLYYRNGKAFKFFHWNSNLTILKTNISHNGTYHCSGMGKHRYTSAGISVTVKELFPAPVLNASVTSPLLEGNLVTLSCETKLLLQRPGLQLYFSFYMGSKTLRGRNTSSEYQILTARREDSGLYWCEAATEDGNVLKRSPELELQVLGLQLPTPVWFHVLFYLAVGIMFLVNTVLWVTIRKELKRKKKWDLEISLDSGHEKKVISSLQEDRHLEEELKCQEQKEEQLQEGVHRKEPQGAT

B1: IgG1 LN01 antibody (antibody, V domains shown)
VH: EVQLVESGPGLVQPWGTLSLTCRVSGDSVSNDNYYWAWIRQTPGRELQVIGTIYYSGTTYYNPSLRNRVTISLDKSVNVVSLRLGSVSAADTAQYYCVRMPSHGFWSTSFSYWYFDLWGRGHFVAVSW
VL: DIQMTQSPSSLSASVGDKVTITCRASQSVTKYLNWYQFKTGQAPRILIYGTYTLLSGVSPRFSGAGSGSLYTLTITNIQPEDFATYYCQQAHSTPWTFGQGTHVAAN
- neutralizing activity on TZM-bl cells expressing Fc-gamma receptor I against parental TZM-bl cells: 100 fold
